The experiment addresses Man5GlcNAc2-enriched CH505.M5.G458Y chimeric SOSIP gp140 Env trimer (HIV-1 (CH505 transmitted/founder virus) | HIV-1). Briefly: BLI. On the technique in general: In BLI a coated tip is dipped into the sample, and binding shifts an interference pattern.

As usually defined, the Kd is the free concentration of one partner at which half of the binding sites on the other are occupied at equilibrium, for simple one-to-one binding. Lower therefore signals a tighter complex.

Turning to CH235 UCA IgG (antibody), the dissociation constant Kd stood at 4.5 nM.
To CH235.12 Fab belongs 0.2 nM.

The values above are taken from article doi:10.1101/2023.03.05.531154.
